{"source": "patent US20090035321A1", "about": "“Intercellular adhesion molecules and their binding ligands” (Boehringer Ingelheim Pharmaceuticals, Inc., published 2009)", "experiment_in_all_cases": "flow, COS cells", "key": {"[1]": {"target": "ICAM-1 N269QSQI/IQAEQ (human) (UniProt P05362)"}, "ICAM-1 S5/T (human)": {"target": "ICAM-1 S5/T (human) (UniProt P05362)"}, "ICAM-1 N240DS/KNA": {"target": "ICAM-1 N240DS/KNA (human, UniProt P05362)"}, "ICAM-1 E254DE/KEK": {"target": "ICAM-1 E254DE/KEK (human, UniProt P05362)"}, "ICAM-1 Q1T/KA": {"target": "ICAM-1 Q1T/KA (human, UniProt P05362)"}, "ICAM-1 Q1/K": {"target": "ICAM-1 Q1/K (human, UniProt P05362)"}, "ICAM-1 S3/T": {"target": "ICAM-1 S3/T (human, UniProt P05362)"}, "ICAM-1 V4/G": {"target": "ICAM-1 V4/G (human, UniProt P05362)"}, "ICAM-1 K8/E": {"target": "ICAM-1 K8/E (human, UniProt P05362)"}, "ICAM-1 R13/E": {"target": "ICAM-1 R13/E (human, UniProt P05362)"}, "ICAM-1 R13/K": {"target": "ICAM-1 R13/K (human, UniProt P05362)"}, "ICAM-1 G15/SA": {"target": "ICAM-1 G15/SA (human, UniProt P05362)"}, "ICAM-1 T20CS/ACT": {"target": "ICAM-1 T20CS/ACT (human, UniProt P05362)"}, "ICAM-1 S24/A": {"target": "ICAM-1 S24/A (human, UniProt P05362)"}, "ICAM-1 D26QPK/ALPE": {"target": "ICAM-1 D26QPK/ALPE (human, UniProt P05362)"}, "ICAM-1 Q27/L": {"target": "ICAM-1 Q27/L (human, UniProt P05362)"}, "ICAM-1 E34/A": {"target": "ICAM-1 E34/A (human, UniProt P05362)"}, "ICAM-1 K39KE/ERQ": {"target": "ICAM-1 K39KE/ERQ (human, UniProt P05362)"}, "ICAM-1 K40/A": {"target": "ICAM-1 K40/A (human, UniProt P05362)"}, "ICAM-1 N48/H": {"target": "ICAM-1 N48/H (human, UniProt P05362)"}, "ICAM-1 R49KV/EKL": {"target": "ICAM-1 R49KV/EKL (human, UniProt P05362)"}, "ICAM-1 K50V/EL": {"target": "ICAM-1 K50V/EL (human, UniProt P05362)"}, "ICAM-1 Y52/FA": {"target": "ICAM-1 Y52/FA (human, UniProt P05362)"}, "ICAM-1 N56V/HM": {"target": "ICAM-1 N56V/HM (human, UniProt P05362)"}, "ICAM-1 Q58/H": {"target": "ICAM-1 Q58/H (human, UniProt P05362)"}, "ICAM-1 E59/Q": {"target": "ICAM-1 E59/Q (human, UniProt P05362)"}, "ICAM-1 D60/K": {"target": "ICAM-1 D60/K (human, UniProt P05362)"}, "ICAM-1 S61/I": {"target": "ICAM-1 S61/I (human, UniProt P05362)"}, "ICAM-1 Q62PM/API": {"target": "ICAM-1 Q62PM/API (human, UniProt P05362)"}, "ICAM-1 M64/I": {"target": "ICAM-1 M64/I (human, UniProt P05362)"}, "ICAM-1 N68/K": {"target": "ICAM-1 N68/K (human, UniProt P05362)"}, "ICAM-1 D71/N": {"target": "ICAM-1 D71/N (human, UniProt P05362)"}, "ICAM-1 Q73/H": {"target": "ICAM-1 Q73/H (human, UniProt P05362)"}, "ICAM-1 Q73/T": {"target": "ICAM-1 Q73/T (human, UniProt P05362)"}, "ICAM-1 T75/A": {"target": "ICAM-1 T75/A (human, UniProt P05362)"}, "ICAM-1 K77T/ES": {"target": "ICAM-1 K77T/ES (human, UniProt P05362)"}, "ICAM-1 R88V/EA": {"target": "ICAM-1 R88V/EA (human, UniProt P05362)"}, "ICAM-1 L91/A": {"target": "ICAM-1 L91/A (human, UniProt P05362)"}, "ICAM-1 G101K/AN": {"target": "ICAM-1 G101K/AN (human, UniProt P05362)"}, "ICAM-1 N103/K": {"target": "ICAM-1 N103/K (human, UniProt P05362)"}, "ICAM-1 N118/Q": {"target": "ICAM-1 N118/Q (human, UniProt P05362)"}, "ICAM-1 V136GE/GVK": {"target": "ICAM-1 V136GE/GVK (human, UniProt P05362)"}, "ICAM-1 R149RD/EEG": {"target": "ICAM-1 R149RD/EEG (human, UniProt P05362)"}, "ICAM-1 H152HGA/EEGS": {"target": "ICAM-1 H152HGA/EEGS (human, UniProt P05362)"}, "ICAM-1 R166PQ/EPA": {"target": "ICAM-1 R166PQ/EPA (human, UniProt P05362)"}, "ICAM-1 N175TSA/QTLG": {"target": "ICAM-1 N175TSA/QTLG (human, UniProt P05362)"}, "ICAM-1 N175/A": {"target": "ICAM-1 N175/A (human, UniProt P05362)"}, "ICAM-1 S177/G": {"target": "ICAM-1 S177/G (human, UniProt P05362)"}, "ICAM-1 A178/G": {"target": "ICAM-1 A178/G (human, UniProt P05362)"}, "ICAM-1 A189T/SI": {"target": "ICAM-1 A189T/SI (human, UniProt P05362)"}, "ICAM-1 D213GL/HGV": {"target": "ICAM-1 D213GL/HGV (human, UniProt P05362)"}, "ICAM-1 D229QR/HLE": {"target": "ICAM-1 D229QR/HLE (human, UniProt P05362)"}}}
{"substance": "monoclonal antibody CL203", "values": [{"measurement": "SLFI % WT", "setting": "[1]", "result": 95, "unit": "% WT"}, {"measurement": "SLFI % WT", "setting": "ICAM-1 S5/T (human)", "result": 251, "unit": "% WT"}, {"measurement": "SLFI % WT", "setting": "ICAM-1 N240DS/KNA", "result": 142, "unit": "% WT"}, {"measurement": "SLFI % WT", "setting": "ICAM-1 E254DE/KEK", "result": 180, "unit": "% WT"}, {"measurement": "SLFI % WT", "setting": "ICAM-1 Q1T/KA", "result": 230, "unit": "% WT"}, {"measurement": "SLFI % WT", "setting": "ICAM-1 Q1/K", "result": 168, "unit": "% WT"}, {"measurement": "SLFI % WT", "setting": "ICAM-1 S3/T", "result": 224, "unit": "% WT"}, {"measurement": "SLFI % WT", "setting": "ICAM-1 V4/G", "result": 111, "unit": "% WT"}, {"measurement": "SLFI % WT", "setting": "ICAM-1 K8/E", "result": 111, "unit": "% WT"}, {"measurement": "SLFI % WT", "setting": "ICAM-1 R13/E", "result": 202, "unit": "% WT"}, {"measurement": "SLFI % WT", "setting": "ICAM-1 R13/K", "result": 189, "unit": "% WT"}, {"measurement": "SLFI % WT", "setting": "ICAM-1 G15/SA", "result": 172, "unit": "% WT"}, {"measurement": "SLFI % WT", "setting": "ICAM-1 T20CS/ACT", "result": 148, "unit": "% WT"}, {"measurement": "SLFI % WT", "setting": "ICAM-1 S24/A", "result": 158, "unit": "% WT"}, {"measurement": "SLFI % WT", "setting": "ICAM-1 D26QPK/ALPE", "result": 126, "unit": "% WT"}, {"measurement": "SLFI % WT", "setting": "ICAM-1 Q27/L", "result": 33, "unit": "% WT"}, {"measurement": "SLFI % WT", "setting": "ICAM-1 E34/A", "result": 132, "unit": "% WT"}, {"measurement": "SLFI % WT", "setting": "ICAM-1 K39KE/ERQ", "result": 84, "unit": "% WT"}, {"measurement": "SLFI % WT", "setting": "ICAM-1 K40/A", "result": 146, "unit": "% WT"}, {"measurement": "SLFI % WT", "setting": "ICAM-1 N48/H", "result": 164, "unit": "% WT"}, {"measurement": "SLFI % WT", "setting": "ICAM-1 R49KV/EKL", "result": 233, "unit": "% WT"}, {"measurement": "SLFI % WT", "setting": "ICAM-1 K50V/EL", "result": 103, "unit": "% WT"}, {"measurement": "SLFI % WT", "setting": "ICAM-1 Y52/FA", "result": 100, "unit": "% WT"}, {"measurement": "SLFI % WT", "setting": "ICAM-1 N56V/HM", "result": 121, "unit": "% WT"}, {"measurement": "SLFI % WT", "setting": "ICAM-1 Q58/H", "result": 135, "unit": "% WT"}, {"measurement": "SLFI % WT", "setting": "ICAM-1 E59/Q", "result": 195, "unit": "% WT"}, {"measurement": "SLFI % WT", "setting": "ICAM-1 D60/K", "result": 89, "unit": "% WT"}, {"measurement": "SLFI % WT", "setting": "ICAM-1 S61/I", "result": 140, "unit": "% WT"}, {"measurement": "SLFI % WT", "setting": "ICAM-1 Q62PM/API", "result": 200, "unit": "% WT"}, {"measurement": "SLFI % WT", "setting": "ICAM-1 M64/I", "result": 183, "unit": "% WT"}, {"measurement": "SLFI % WT", "setting": "ICAM-1 N68/K", "result": 153, "unit": "% WT"}, {"measurement": "SLFI % WT", "setting": "ICAM-1 D71/N", "result": 109, "unit": "% WT"}, {"measurement": "SLFI % WT", "setting": "ICAM-1 Q73/H", "result": 139, "unit": "% WT"}, {"measurement": "SLFI % WT", "setting": "ICAM-1 Q73/T", "result": 218, "unit": "% WT"}, {"measurement": "SLFI % WT", "setting": "ICAM-1 T75/A", "result": 153, "unit": "% WT"}, {"measurement": "SLFI % WT", "setting": "ICAM-1 K77T/ES", "result": 151, "unit": "% WT"}, {"measurement": "SLFI % WT", "setting": "ICAM-1 R88V/EA", "result": 113, "unit": "% WT"}, {"measurement": "SLFI % WT", "setting": "ICAM-1 L91/A", "result": 15, "unit": "% WT"}, {"measurement": "SLFI % WT", "setting": "ICAM-1 G101K/AN", "result": 142, "unit": "% WT"}, {"measurement": "SLFI % WT", "setting": "ICAM-1 N103/K", "result": 91, "unit": "% WT"}, {"measurement": "SLFI % WT", "setting": "ICAM-1 N118/Q", "result": 139, "unit": "% WT"}, {"measurement": "SLFI % WT", "setting": "ICAM-1 V136GE/GVK", "result": 171, "unit": "% WT"}, {"measurement": "SLFI % WT", "setting": "ICAM-1 R149RD/EEG", "result": 159, "unit": "% WT"}, {"measurement": "SLFI % WT", "setting": "ICAM-1 H152HGA/EEGS", "result": 94, "unit": "% WT"}, {"measurement": "SLFI % WT", "setting": "ICAM-1 R166PQ/EPA", "result": 94, "unit": "% WT"}, {"measurement": "SLFI % WT", "setting": "ICAM-1 N175TSA/QTLG", "result": 75, "unit": "% WT"}, {"measurement": "SLFI % WT", "setting": "ICAM-1 N175/A", "result": 80, "unit": "% WT"}, {"measurement": "SLFI % WT", "setting": "ICAM-1 S177/G", "result": 87, "unit": "% WT"}, {"measurement": "SLFI % WT", "setting": "ICAM-1 A178/G", "result": 304, "unit": "% WT"}, {"measurement": "SLFI % WT", "setting": "ICAM-1 A189T/SI", "result": 138, "unit": "% WT"}, {"measurement": "SLFI % WT", "setting": "ICAM-1 D213GL/HGV", "result": 128, "unit": "% WT"}, {"measurement": "SLFI % WT", "setting": "ICAM-1 D229QR/HLE", "result": 210, "unit": "% WT"}]}
